Reference: patent US20260001928A1 (CORTERIA PHARMACEUTICALS, priority 2022, published 2026)
*1 amine or outer side, *2 acyl side, *3 side chain or, on linkers, in order; H or OH if unused. Primed or numbered codes have the meaning given here. Side-chain parts run from the residue outwards. [ ]: non-standard residue; d: D form. The star is where a group is joined. Thp′ = 4-amino-tetrahydro-2H-pyran-4-yl-acetic acid, O=C(CC1(N[*:1])CCOCC1)[*:2]; C20 diacid = O=C(O)CCCCCCCCCCCCCCCCCCC(=O)*; C18 diacid = O=C(O)CCCCCCCCCCCCCCCCC(=O)*; γGlu = O=C(O)[C@H](CCC(=O)[*:2])N[*:1]; Api = NC1(C(=O)O)CCNCC1; AEEA = NCCOCCOCC(=O)O; Aib = CC(C)(N)C(=O)O

T1: CRF1R receptor (UniProt P34998 24-415, limits assumed)
T1 sequence (looked up): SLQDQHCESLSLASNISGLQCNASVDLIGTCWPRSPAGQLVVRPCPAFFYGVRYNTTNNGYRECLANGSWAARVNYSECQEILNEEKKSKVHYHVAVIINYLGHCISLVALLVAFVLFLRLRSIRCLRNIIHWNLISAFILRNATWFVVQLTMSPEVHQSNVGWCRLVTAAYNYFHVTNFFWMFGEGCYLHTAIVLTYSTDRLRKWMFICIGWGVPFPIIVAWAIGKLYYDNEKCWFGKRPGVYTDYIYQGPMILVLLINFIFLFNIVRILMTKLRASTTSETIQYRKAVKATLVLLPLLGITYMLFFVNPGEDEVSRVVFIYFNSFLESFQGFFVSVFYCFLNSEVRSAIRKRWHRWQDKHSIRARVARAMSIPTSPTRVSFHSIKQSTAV

B1: SEQ ID NO 209 (peptide)
peptide: Ac-IVLSLD[dV]PIKLK([γGlu-C20 diacid])KILLEQEKQK[Aib]QREQAETN[Aib]QILAQV-NH2
SMILES: CC[C@H](C)[C@H](NC(C)=O)C(=O)N[C@H](C(=O)N[C@@H](CC(C)C)C(=O)N[C@@H](CO)C(=O)N[C@@H](CC(C)C)C(=O)N[C@@H](CC(=O)O)C(=O)N[C@@H](C(=O)N1CCC[C@H]1C(=O)N[C@H](C(=O)N[C@@H](CCCCN)C(=O)N[C@@H](CC(C)C)C(=O)N[C@@H](CCCCNC(=O)CC[C@H](NC(=O)CCCCCCCCCCCCCCCCCCC(=O)O)C(=O)O)C(=O)N[C@@H](CCCCN)C(=O)N[C@H](C(=O)N[C@@H](CC(C)C)C(=O)N[C@@H](CC(C)C)C(=O)N[C@@H](CCC(=O)O)C(=O)N[C@@H](CCC(N)=O)C(=O)N[C@@H](CCC(=O)O)C(=O)N[C@@H](CCCCN)C(=O)N[C@@H](CCC(N)=O)C(=O)N[C@@H](CCCCN)C(=O)NC(C)(C)C(=O)N[C@@H](CCC(N)=O)C(=O)N[C@@H](CCCNC(=N)N)C(=O)N[C@@H](CCC(=O)O)C(=O)N[C@@H](CCC(N)=O)C(=O)N[C@@H](C)C(=O)N[C@@H](CCC(=O)O)C(=O)N[C@H](C(=O)N[C@@H](CC(N)=O)C(=O)NC(C)(C)C(=O)N[C@@H](CCC(N)=O)C(=O)N[C@H](C(=O)N[C@@H](CC(C)C)C(=O)N[C@@H](C)C(=O)N[C@@H](CCC(N)=O)C(=O)N[C@H](C(N)=O)C(C)C)[C@@H](C)CC)[C@@H](C)O)[C@@H](C)CC)[C@@H](C)CC)C(C)C)C(C)C
B2: SEQ ID NO 210 (peptide)
peptide: Ac-IVLSLD[dV]PIKLK([γGlu-C20 diacid])KILLEQEKQKKQREQAETN[Thp′]QILAQV-NH2
B3: SEQ ID NO 204 (peptide)
peptide: Ac-IVLSLD[dV]PIKLK([AEEA-AEEA-γGlu-γGlu-C18 diacid])KILLEQEKQKKQREQAETN[Aib]QILAQV-NH2
SMILES: CC[C@H](C)[C@H](NC(C)=O)C(=O)N[C@H](C(=O)N[C@@H](CC(C)C)C(=O)N[C@@H](CO)C(=O)N[C@@H](CC(C)C)C(=O)N[C@@H](CC(=O)O)C(=O)N[C@@H](C(=O)N1CCC[C@H]1C(=O)N[C@H](C(=O)N[C@@H](CCCCN)C(=O)N[C@@H](CC(C)C)C(=O)N[C@@H](CCCCNC(=O)COCCOCCNC(=O)COCCOCCNC(=O)CC[C@H](NC(=O)CC[C@H](NC(=O)CCCCCCCCCCCCCCCCC(=O)O)C(=O)O)C(=O)O)C(=O)N[C@@H](CCCCN)C(=O)N[C@H](C(=O)N[C@@H](CC(C)C)C(=O)N[C@@H](CC(C)C)C(=O)N[C@@H](CCC(=O)O)C(=O)N[C@@H](CCC(N)=O)C(=O)N[C@@H](CCC(=O)O)C(=O)N[C@@H](CCCCN)C(=O)N[C@@H](CCC(N)=O)C(=O)N[C@@H](CCCCN)C(=O)N[C@@H](CCCCN)C(=O)N[C@@H](CCC(N)=O)C(=O)N[C@@H](CCCNC(=N)N)C(=O)N[C@@H](CCC(=O)O)C(=O)N[C@@H](CCC(N)=O)C(=O)N[C@@H](C)C(=O)N[C@@H](CCC(=O)O)C(=O)N[C@H](C(=O)N[C@@H](CC(N)=O)C(=O)NC(C)(C)C(=O)N[C@@H](CCC(N)=O)C(=O)N[C@H](C(=O)N[C@@H](CC(C)C)C(=O)N[C@@H](C)C(=O)N[C@@H](CCC(N)=O)C(=O)N[C@H](C(N)=O)C(C)C)[C@@H](C)CC)[C@@H](C)O)[C@@H](C)CC)[C@@H](C)CC)C(C)C)C(C)C
B4: SEQ ID NO 208 (peptide)
peptide: Ac-IVLSLD[dV]PIKLK([γGlu-C20 diacid])KILLEQEKQK[Aib]QREQAETN[Api]QILAQV-NH2
SMILES: CC[C@H](C)[C@H](NC(C)=O)C(=O)N[C@H](C(=O)N[C@@H](CC(C)C)C(=O)N[C@@H](CO)C(=O)N[C@@H](CC(C)C)C(=O)N[C@@H](CC(=O)O)C(=O)N[C@@H](C(=O)N1CCC[C@H]1C(=O)N[C@H](C(=O)N[C@@H](CCCCN)C(=O)N[C@@H](CC(C)C)C(=O)N[C@@H](CCCCNC(=O)CC[C@H](NC(=O)CCCCCCCCCCCCCCCCCCC(=O)O)C(=O)O)C(=O)N[C@@H](CCCCN)C(=O)N[C@H](C(=O)N[C@@H](CC(C)C)C(=O)N[C@@H](CC(C)C)C(=O)N[C@@H](CCC(=O)O)C(=O)N[C@@H](CCC(N)=O)C(=O)N[C@@H](CCC(=O)O)C(=O)N[C@@H](CCCCN)C(=O)N[C@@H](CCC(N)=O)C(=O)N[C@@H](CCCCN)C(=O)NC(C)(C)C(=O)N[C@@H](CCC(N)=O)C(=O)N[C@@H](CCCNC(=N)N)C(=O)N[C@@H](CCC(=O)O)C(=O)N[C@@H](CCC(N)=O)C(=O)N[C@@H](C)C(=O)N[C@@H](CCC(=O)O)C(=O)N[C@H](C(=O)N[C@@H](CC(N)=O)C(=O)NC1(C(=O)N[C@@H](CCC(N)=O)C(=O)N[C@H](C(=O)N[C@@H](CC(C)C)C(=O)N[C@@H](C)C(=O)N[C@@H](CCC(N)=O)C(=O)N[C@H](C(N)=O)C(C)C)[C@@H](C)CC)CCNCC1)[C@@H](C)O)[C@@H](C)CC)[C@@H](C)CC)C(C)C)C(C)C
B5: SEQ ID NO 207 (peptide)
peptide: Ac-IVLSLD[dV]PIKLK([γGlu-C20 diacid])KILLEQEKQKKQREQAETN[Api]QILAQV-NH2
SMILES: CC[C@H](C)[C@H](NC(C)=O)C(=O)N[C@H](C(=O)N[C@@H](CC(C)C)C(=O)N[C@@H](CO)C(=O)N[C@@H](CC(C)C)C(=O)N[C@@H](CC(=O)O)C(=O)N[C@@H](C(=O)N1CCC[C@H]1C(=O)N[C@H](C(=O)N[C@@H](CCCCN)C(=O)N[C@@H](CC(C)C)C(=O)N[C@@H](CCCCNC(=O)CC[C@H](NC(=O)CCCCCCCCCCCCCCCCCCC(=O)O)C(=O)O)C(=O)N[C@@H](CCCCN)C(=O)N[C@H](C(=O)N[C@@H](CC(C)C)C(=O)N[C@@H](CC(C)C)C(=O)N[C@@H](CCC(=O)O)C(=O)N[C@@H](CCC(N)=O)C(=O)N[C@@H](CCC(=O)O)C(=O)N[C@@H](CCCCN)C(=O)N[C@@H](CCC(N)=O)C(=O)N[C@@H](CCCCN)C(=O)N[C@@H](CCCCN)C(=O)N[C@@H](CCC(N)=O)C(=O)N[C@@H](CCCNC(=N)N)C(=O)N[C@@H](CCC(=O)O)C(=O)N[C@@H](CCC(N)=O)C(=O)N[C@@H](C)C(=O)N[C@@H](CCC(=O)O)C(=O)N[C@H](C(=O)N[C@@H](CC(N)=O)C(=O)NC1(C(=O)N[C@@H](CCC(N)=O)C(=O)N[C@H](C(=O)N[C@@H](CC(C)C)C(=O)N[C@@H](C)C(=O)N[C@@H](CCC(N)=O)C(=O)N[C@H](C(N)=O)C(C)C)[C@@H](C)CC)CCNCC1)[C@@H](C)O)[C@@H](C)CC)[C@@H](C)CC)C(C)C)C(C)C
B6: SEQ ID NO 206 (peptide)
peptide: Ac-IVLSLD[dV]PIKLK([γGlu-C20 diacid])KILLEQEKQKKQREQAETN[Aib]QILAQV-NH2
SMILES: CC[C@H](C)[C@H](NC(C)=O)C(=O)N[C@H](C(=O)N[C@@H](CC(C)C)C(=O)N[C@@H](CO)C(=O)N[C@@H](CC(C)C)C(=O)N[C@@H](CC(=O)O)C(=O)N[C@@H](C(=O)N1CCC[C@H]1C(=O)N[C@H](C(=O)N[C@@H](CCCCN)C(=O)N[C@@H](CC(C)C)C(=O)N[C@@H](CCCCNC(=O)CC[C@H](NC(=O)CCCCCCCCCCCCCCCCCCC(=O)O)C(=O)O)C(=O)N[C@@H](CCCCN)C(=O)N[C@H](C(=O)N[C@@H](CC(C)C)C(=O)N[C@@H](CC(C)C)C(=O)N[C@@H](CCC(=O)O)C(=O)N[C@@H](CCC(N)=O)C(=O)N[C@@H](CCC(=O)O)C(=O)N[C@@H](CCCCN)C(=O)N[C@@H](CCC(N)=O)C(=O)N[C@@H](CCCCN)C(=O)N[C@@H](CCCCN)C(=O)N[C@@H](CCC(N)=O)C(=O)N[C@@H](CCCNC(=N)N)C(=O)N[C@@H](CCC(=O)O)C(=O)N[C@@H](CCC(N)=O)C(=O)N[C@@H](C)C(=O)N[C@@H](CCC(=O)O)C(=O)N[C@H](C(=O)N[C@@H](CC(N)=O)C(=O)NC(C)(C)C(=O)N[C@@H](CCC(N)=O)C(=O)N[C@H](C(=O)N[C@@H](CC(C)C)C(=O)N[C@@H](C)C(=O)N[C@@H](CCC(N)=O)C(=O)N[C@H](C(N)=O)C(C)C)[C@@H](C)CC)[C@@H](C)O)[C@@H](C)CC)[C@@H](C)CC)C(C)C)C(C)C
B7: SEQ ID NO 205 (peptide)
peptide: Ac-IVLSLD[dV]PIKLK([AEEA-γGlu-γGlu-C18 diacid])KILLEQEKQKKQREQAETN[Aib]QILAQV-NH2
SMILES: CC[C@H](C)[C@H](NC(C)=O)C(=O)N[C@H](C(=O)N[C@@H](CC(C)C)C(=O)N[C@@H](CO)C(=O)N[C@@H](CC(C)C)C(=O)N[C@@H](CC(=O)O)C(=O)N[C@@H](C(=O)N1CCC[C@H]1C(=O)N[C@H](C(=O)N[C@@H](CCCCN)C(=O)N[C@@H](CC(C)C)C(=O)N[C@@H](CCCCNC(=O)COCCOCCNC(=O)CC[C@H](NC(=O)CC[C@H](NC(=O)CCCCCCCCCCCCCCCCC(=O)O)C(=O)O)C(=O)O)C(=O)N[C@@H](CCCCN)C(=O)N[C@H](C(=O)N[C@@H](CC(C)C)C(=O)N[C@@H](CC(C)C)C(=O)N[C@@H](CCC(=O)O)C(=O)N[C@@H](CCC(N)=O)C(=O)N[C@@H](CCC(=O)O)C(=O)N[C@@H](CCCCN)C(=O)N[C@@H](CCC(N)=O)C(=O)N[C@@H](CCCCN)C(=O)N[C@@H](CCCCN)C(=O)N[C@@H](CCC(N)=O)C(=O)N[C@@H](CCCNC(=N)N)C(=O)N[C@@H](CCC(=O)O)C(=O)N[C@@H](CCC(N)=O)C(=O)N[C@@H](C)C(=O)N[C@@H](CCC(=O)O)C(=O)N[C@H](C(=O)N[C@@H](CC(N)=O)C(=O)NC(C)(C)C(=O)N[C@@H](CCC(N)=O)C(=O)N[C@H](C(=O)N[C@@H](CC(C)C)C(=O)N[C@@H](C)C(=O)N[C@@H](CCC(N)=O)C(=O)N[C@H](C(N)=O)C(C)C)[C@@H](C)CC)[C@@H](C)O)[C@@H](C)CC)[C@@H](C)CC)C(C)C)C(C)C

target: T1, CRF1R receptor; test: cell-based or functional assay

Emax (% I) [%] | EC50 [nM] | Binder
21 | – | B1
35 | > 250 | B2
-2 | – | B3
63 | 83.9 | B4
65 | 61.4 | B5
42 | 224 | B6
1 | – | B7

target: human corticotropin-releasing factor 2a (CRF2a receptor) (human), Q13324; test: cell-based or functional assay
Sequence (Q13324 20-411): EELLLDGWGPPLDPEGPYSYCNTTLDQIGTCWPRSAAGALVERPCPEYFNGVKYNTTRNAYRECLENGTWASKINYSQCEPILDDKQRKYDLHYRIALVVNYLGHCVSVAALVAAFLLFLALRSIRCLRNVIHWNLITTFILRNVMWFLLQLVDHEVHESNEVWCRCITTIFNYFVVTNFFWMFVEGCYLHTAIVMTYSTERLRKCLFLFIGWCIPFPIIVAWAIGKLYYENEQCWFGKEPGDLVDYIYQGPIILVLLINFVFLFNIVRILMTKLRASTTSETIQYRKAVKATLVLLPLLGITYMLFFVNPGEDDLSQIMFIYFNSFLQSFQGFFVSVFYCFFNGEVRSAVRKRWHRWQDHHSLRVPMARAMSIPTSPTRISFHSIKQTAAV

EC50 [nM] (cAMP) | Binder
0.22 | B1
0.21 | B2
1.84 | B3
0.15 | B4
0.12 | B5
0.11 | B6
1.43 | B7
